In patent US20250230254A1 (Janssen / Centocor, published 2025):

B1: KL2B870 (KL2B30 in hIgG1-RE) (antibody)
heavy: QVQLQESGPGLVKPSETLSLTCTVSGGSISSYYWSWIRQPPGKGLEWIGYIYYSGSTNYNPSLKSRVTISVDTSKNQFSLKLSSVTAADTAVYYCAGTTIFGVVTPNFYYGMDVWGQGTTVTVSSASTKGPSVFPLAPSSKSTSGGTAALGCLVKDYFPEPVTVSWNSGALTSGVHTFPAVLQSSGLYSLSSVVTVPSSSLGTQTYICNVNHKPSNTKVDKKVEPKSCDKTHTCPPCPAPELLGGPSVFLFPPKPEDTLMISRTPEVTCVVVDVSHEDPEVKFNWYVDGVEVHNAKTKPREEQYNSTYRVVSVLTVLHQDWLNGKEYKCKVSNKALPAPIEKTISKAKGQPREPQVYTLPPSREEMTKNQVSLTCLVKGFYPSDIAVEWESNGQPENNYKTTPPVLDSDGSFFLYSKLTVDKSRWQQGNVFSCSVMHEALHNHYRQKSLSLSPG
light: DIQMTQSPSFLSASVGDRVTITCRASQGISSYLAWYQQKPGKAPKFLIYAASTLQSGVPSRFSGSGSGTEFTLTISSLQPEDFATYYCQQLNSYPLTFGGGTKVEIKRTVAAPSVFIFPPSDEQLKSGTASVVCLLNNFYPREAKVQWKVDNALQSGNSQESVTEQDSKDSTYSLSSTLTLSKADYEKHKVYACEVTHQGLSSPVTKSFNRGEC
B2: KL2B872.CLF (antibody, human IgG1, kappa)
heavy: not shown
light: B1 light
modifications: low fucosylation of the Fc oligosaccharide (less than 10% fucosylation)
B3: KL2B870.CLF (antibody, human IgG1, kappa)
heavy: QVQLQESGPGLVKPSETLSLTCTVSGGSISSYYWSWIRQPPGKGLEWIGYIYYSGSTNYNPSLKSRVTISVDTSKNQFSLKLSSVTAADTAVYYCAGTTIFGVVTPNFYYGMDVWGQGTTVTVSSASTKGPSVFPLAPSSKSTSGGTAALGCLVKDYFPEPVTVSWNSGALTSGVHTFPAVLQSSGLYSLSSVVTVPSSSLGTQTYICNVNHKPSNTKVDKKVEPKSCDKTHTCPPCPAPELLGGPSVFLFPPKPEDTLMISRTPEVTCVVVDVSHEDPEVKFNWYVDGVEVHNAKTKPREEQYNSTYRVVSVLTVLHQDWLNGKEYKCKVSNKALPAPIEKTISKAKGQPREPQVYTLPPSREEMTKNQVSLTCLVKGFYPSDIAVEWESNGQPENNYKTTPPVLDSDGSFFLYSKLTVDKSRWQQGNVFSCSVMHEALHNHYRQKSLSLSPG
light: B1 light
modifications: low fucosylation of the Fc oligosaccharide (less than 10% fucosylation)

Target: T1, KLK2 (UniProt P20151 25-261, limits assumed)
Assay: cell-based or functional assay

T1 sequence (P20151 25-261 limits assumed): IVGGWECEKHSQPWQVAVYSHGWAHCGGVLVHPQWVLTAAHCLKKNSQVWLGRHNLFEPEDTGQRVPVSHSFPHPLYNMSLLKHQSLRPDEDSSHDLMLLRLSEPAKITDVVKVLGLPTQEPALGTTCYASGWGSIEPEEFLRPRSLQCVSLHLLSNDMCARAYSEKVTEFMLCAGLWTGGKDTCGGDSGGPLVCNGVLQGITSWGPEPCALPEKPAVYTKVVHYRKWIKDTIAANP

Binder	ADCC killing EC50 (M), PBMC effector cells on VCaP cells, 48 hours [M]
B1	1e-09
B2	4.12e-10
B3	3.54e-10

Target: T1, KLK2
Assay: cell-based or functional assay
Remark: another data set of the same source

Binder	ADCC activity, percent cell killing of VCaP cells by PBMC [%]
B1	~73
B2	~85
B3	~89
